The experiment has as its target T1, Ubc9 (Sumo E2 conjugating enzyme), S. cerevisiae (S. cerevisiae, UniProt P50623 1-157).
T1 construct: Ubc9, S. cerevisiae; also called yeast Ubc9; source: cation exchange for crystallography; not shown: GST, N-terminal, cleaved
T1 sequence: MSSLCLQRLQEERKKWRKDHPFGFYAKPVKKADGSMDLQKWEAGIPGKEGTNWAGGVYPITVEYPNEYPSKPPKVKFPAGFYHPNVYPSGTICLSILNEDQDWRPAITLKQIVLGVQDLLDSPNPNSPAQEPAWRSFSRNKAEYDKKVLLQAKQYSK
As to the kind of experiment: crystal structure; 1.1:1 volume:volume mixture of Uba2^ufd at 22 mg/ml and Ubc9 at 27 mg/ml; crystals at 4°C; 20% (w/v) PEG3350, 0.1 M Bis-Tris pH 5.5, 0.2 M Li2SO4; 2.3 Å; two complexes per asymmetric unit. The conditions noted are these: both partners purified.

B1: Uba2 ubiquitin-fold domain (Uba2^ufd), residues 439-563, S. cerevisiae (domain or fragment, UniProt P52488 439-563, looked up)
chain: SKVCRGVIKLSSDCLNKMKLSDFVVLIREKYSYPQDISLLDASNQRLLFDYDFEDLNDRTLSEINLGNGSIILFSDEEGDTMIRKAIELFLDVDDELPCNTCSLPDVEVPLIKANNSPSKNEEEE
notes: Uba2 (Sumo E1 subunit), S. cerevisiae, C-terminal ubiquitin-fold domain, residues 439-563; Expressed from pGEX-4T1; also called yeast Uba2^ufd; not shown: GST, N-terminal, cleaved
As to B1, the binding result is recorded as “binds”.

Values taken from PMC3012696, “Crystal Structure of UBA2^ufd-Ubc9: Insights into E1-E2 Interactions in Sumo Pathways” (PLoS ONE, 2010).
